Data published in patent publication US20180009908.
Numbering of substitutions follows the chain as printed. In names and notes the source's numbering stands.

Columns and labels:
[1] = molecular target: T1, HA-tagged human IgG1 Fc portion with CH3 mutations E345R, Q347R, T366V, K409V; experiment: UPLC SEC of protein G-purified one-arm antibody co-expressed in HEK293F
T1 chain: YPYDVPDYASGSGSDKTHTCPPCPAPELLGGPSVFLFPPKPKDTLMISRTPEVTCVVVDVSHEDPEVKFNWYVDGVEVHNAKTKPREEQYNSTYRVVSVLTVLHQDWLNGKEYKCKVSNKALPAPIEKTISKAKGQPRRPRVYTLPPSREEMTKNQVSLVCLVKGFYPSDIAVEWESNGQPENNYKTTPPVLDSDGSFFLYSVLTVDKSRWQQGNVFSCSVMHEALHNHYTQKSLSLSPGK

[2] = molecular target: T2, HA-tagged human IgG1 Fc portion with CH3 mutations K360D, D399M, Y407A; experiment: as above
T2 chain: T1 chain with R139E, R141Q, K154D, V160T, D193M, Y201A, V203K

[3] = molecular target: BHA10 HC_7.8_B + BHA10 LC (IgG1); experiment: LCMS, IgG1 BsAb co-expression in HEK293F
[4] = molecular target: matuzumab HC_7.8_B + matuzumab LC (IgG1); experiment: LCMS, IgG1 BsAb co-expression in HEK293F
[5] = LCMS, IgG1 BsAb co-expression; HCA homodimer species
[6] = molecular target: BHA10 HC_7.8_B + BHA10 LC (IgG1); experiment: LCMS, IgG1 BsAb co-expression; HCA/HCB heterodimer carrying two LC1
[7] = molecular target: matuzumab HC_7.8_B + matuzumab LC (IgG1); experiment: as above
[8] = molecular target: BHA10 HC_7.8_B + BHA10 LC (IgG1); experiment: LCMS, IgG1 BsAb co-expression; HCA/HCB heterodimer carrying two LC2
[9] = molecular target: matuzumab HC_7.8_B + matuzumab LC (IgG1); experiment: as above
[10] = molecular target: BHA10 HC_7.8.60_B + BHA10 LC (IgG4 HC backbone); experiment: LCMS, IgG4 BsAb co-expression in HEK293F
[11] = molecular target: matuzumab HC_7.8.60_B + matuzumab LC (IgG4 HC backbone); experiment: LCMS, IgG4 BsAb co-expression in HEK293F
[12] = LCMS, IgG4 BsAb co-expression; HCA homodimer species
[13] = molecular target: BHA10 HC_7.8.60_B + BHA10 LC (IgG4 HC backbone); experiment: LCMS, IgG4 BsAb co-expression; HCA/HCB heterodimer carrying two LC1
[14] = molecular target: matuzumab HC_7.8.60_B + matuzumab LC (IgG4 HC backbone); experiment: as above
[15] = molecular target: BHA10 HC_7.8.60_B + BHA10 LC (IgG4 HC backbone); experiment: LCMS, IgG4 BsAb co-expression; HCA/HCB heterodimer carrying two LC2
[16] = molecular target: matuzumab HC_7.8.60_B + matuzumab LC (IgG4 HC backbone); experiment: as above
[17] = molecular target: BHA10 HC_7.8.60_B + BHA10 LC (IgG1); experiment: LCMS, IgG1 BsAb co-expression in HEK293F
[18] = molecular target: matuzumab HC_7.8.60_B + matuzumab LC (IgG1); experiment: LCMS, IgG1 BsAb co-expression in HEK293F
[19] = molecular target: BHA10 HC_7.8.60_B + BHA10 LC (IgG1); experiment: LCMS, IgG1 BsAb co-expression; HCA/HCB heterodimer carrying two LC1
[20] = molecular target: matuzumab HC_7.8.60_B + matuzumab LC (IgG1); experiment: as above
[21] = molecular target: BHA10 HC_7.8.60_B + BHA10 LC (IgG1); experiment: LCMS, IgG1 BsAb co-expression; HCA/HCB heterodimer carrying two LC2
[22] = molecular target: matuzumab HC_7.8.60_B + matuzumab LC (IgG1); experiment: as above
[23] = molecular target: BHA10 HC_20.8.34_B + BHA10 LC (IgG4 HC backbone); experiment: LCMS, IgG4 BsAb co-expression in HEK293F
[24] = molecular target: matuzumab HC_20.8.34_B + matuzumab LC (IgG4 HC backbone); experiment: LCMS, IgG4 BsAb co-expression in HEK293F
[25] = molecular target: BHA10 HC_20.8.34_B + BHA10 LC (IgG4 HC backbone); experiment: LCMS, IgG4 BsAb co-expression; HCA/HCB heterodimer carrying two LC1
[26] = molecular target: matuzumab HC_20.8.34_B + matuzumab LC (IgG4 HC backbone); experiment: as above
[27] = molecular target: BHA10 HC_20.8.34_B + BHA10 LC (IgG4 HC backbone); experiment: LCMS, IgG4 BsAb co-expression; HCA/HCB heterodimer carrying two LC2
[28] = molecular target: matuzumab HC_20.8.34_B + matuzumab LC (IgG4 HC backbone); experiment: as above
[29] = pertuzumab × matuzumab bispecific
[30] = Pertuzumab × BHA10 IgG BsAbs (with select CH3 Designs)
[31] = Pertuzumab × Matuzumab IgG BsAbs (with select CH3 Designs)

B1: anti-c-Met 5D5 VH-human IgG1 HC with CH3 mutations K360D, D399M, Y407A, with 5D5 light chain (protein)
chain 1: EVQLVESGGGLVQPGGSLRLSCAASGYTFTSYWLHWVRQAPGKGLEWVGMIDPSNSDTRFNPNFKDRFTISADTSKNTAYLQMNSLRAEDTAVYYCATYRSYVTPLDYWGQGTLVTVSSASTKGPSVFPLAPSSKSTSGGTAALGCLVKDYFPEPVTVSWNSGALTSGVHTFPAVLQSSGLYSLSSVVTVPSSSLGTQTYICNVNHKPSNTKVDKRVEPKSCDKTHTCPPCPAPELLGGPSVFLFPPKPKDTLMISRTPEVTCVVVDVSHEDPEVKFNWYVDGVEVHNAKTKPREEQYNSTYRVVSVLTVLHQDWLNGKEYKCKVSNKALPAPIEKTISKAKGQPREPQVYTLPPSREEMTDNQVSLTCLVKGFYPSDIAVEWESNGQPENNYKTTPPVLMSDGSFFLASKLTVDKSRWQQGNVFSCSVMHEALHNHYTQKSLSLSPGK
chain 2: DIQMTQSPSSLSASVGDRVTITCKSSQSLLYTSSQKNYLAWYQQKPGKAPKLLIYWASTRESGVPSRFSGSGSGTDFTLTISSLQPEDFATYYCQQYYAYPWTFGQGTKVEIKRTVAAPSVFIFPPSDEQLKSGTASVVCLLNNFYPREAKVQWKVDNALQSGNSQESVTEQDSKDSTYSLSSTLTLSKADYEKHKVYACEVTHQGLSSPVTKSFNRGEC
% heterodimer (UPLC) [1]: 93%

B2: anti-c-Met 5D5 VH-human IgG1 HC with CH3 mutations E345R, Q347R, T366V, K409V, with 5D5 light chain (protein)
chain 1: B1 chain 1 with E347R, Q349R, D362K, T368V, M401D, A409Y, K411V
chain 2: B1 chain 2
% heterodimer (UPLC) [2]: 93.3%

B3: pertuzumab HC_7.8_A + pertuzumab LC (IgG1) (protein)
chain 1: EVQLVESGGGLVQPGGSLRLSCAASGFTFTDYTMDWVRKAPGKGLEWVADVNPNSGGSIYNQEFKGRFTLSVDRSKNTLYLQMNSLRAEDTAVYYCARNLGPSFYFDYWGQGTLVTVSSASTKGPSVFPLAPSSKSTSGGTAALGCLVKDYFPEPVTVSWNSGALTSGVATGPAVLQSSGLYSLSSVVTVPSSSLGTQTYICNVNHKPSNTKVDKKVEPKSCDKTHTCPPCPAPELLGGPSVFLFPPKPKDTLMISRTPEVTCVVVDVSHEDPEVKFNWYVDGVEVHNAKTKPREEQYQSTYRVVSVLTVLHQDWLNGKEYKCKVSNKALPAPIEKTISKAKGQPREPQVYTLPPSREEMTKNQVSLTCLVKGFYPSDIAVEWESNGQPENNYKTTPPVLMSDGSFFLASKLTVDKSRWQQGNVFSCSVMHEALHNHYTQKSLSLSPGK
chain 2: RIQMTQSPSSLSASVGDRVTITCKASQDVSIGVAWYQDKPGKAPKLLIYSASYRYTGVPSRFSGSGSGTDFTLTISSLQPEDFATYYCQQYYIYPYTFGQGTKVEIKGQPKAAPSVTLFPPSSEELQANKATLVCYISDFYPGAVTVAWKADSSPVKAGVETTTPSKQSNNKYAAWSYLSLTPEQWKSHRSYSCQVTHEGSTVEKTVAPTEC
% AB (LC1/LC2) (correct IgG BsAb assembly) [3]: 69.3%
% AB (LC1/LC2) (correct IgG BsAb assembly) [4]: 95.4%
% AA Homodimer (incorrect assembly) ([5]; pertuzumab × BHA10 bispecific): 0%
% AA Homodimer (incorrect assembly) [5, 29]: 0.5%
% AB (2x LC1) (incorrect assembly) [6]: 15.6%
% AB (2x LC1) (incorrect assembly) [7]: 0%
% AB (2x LC2) (incorrect assembly) [8]: 0%
% AB (2x LC2) (incorrect assembly) [9]: 1.2%

B4: pertuzumab HC_7.8.60_A + pertuzumab LC (IgG4 HC backbone) (protein)
chain 1: EVQLVESGGGLVQPGGSLRLSCAASGFTFTDYTMDWVRKAPGKGLEWVADVNPNSGGSIYNQEFKGRFTLSVDRSKNTLYLQMNSLRAEDTAVYYCARNLGPSFYFDYWGQGTLVTVSSASTKGPSVFPLAPCSRSTSESTAALGCLVKDYFPEPVTVSWNSGALTSGVATGPAVLQSSGLYSLSSVVTVPSSSLGTKTYTCNVDHKPSNTKVDKRVESKYGPPCPPCPAPEAAGGPSVFLFPPKPKDTLMISRTPEVTCVVVDVSQEDPEVQFNWYVDGVEVHNAKTKPREEQFQSTYRVVSVLTVLHQDWLNGKEYKCKVSNKGLPSSIEKTISKAKGQPREPQVYTLPPSQEEMTDNQVSLTCLVKGFYPSDIAVEWESNGQPENNYKTTPPVLMSDGSFFLASRLTVDKSRWQEGNVFSCSVMHEALHNHYTQKSLSLSLG
chain 2: B3 chain 2
% AB (LC1/LC2) (correct IgG BsAb assembly) [10]: 95.8%
% AB (LC1/LC2) (correct IgG BsAb assembly) [11]: 90.9%
% AA Homodimer (incorrect assembly) [12, 30]: 0%
% AA Homodimer (incorrect assembly) [12, 31]: 9.1%
% AB (2x LC1) (incorrect assembly) [13]: 0%
% AB (2x LC1) (incorrect assembly) [14]: 0%
% AB (2x LC2) (incorrect assembly) [15]: 0%
% AB (2x LC2) (incorrect assembly) [16]: 0%

B5: pertuzumab HC_7.8.60_A + pertuzumab LC (IgG1) (protein)
chain 1: B3 chain 1 with K362D
chain 2: B3 chain 2
% AB (LC1/LC2) (correct IgG BsAb assembly) [17]: 95.2%
% AB (LC1/LC2) (correct IgG BsAb assembly) [18]: 98.1%
% AA Homodimer (incorrect assembly) ([5]; pertuzumab × BHA10 bispecific): 0.7%
% AA Homodimer (incorrect assembly) [5, 29]: 0.6%
% AB (2x LC1) (incorrect assembly) [19]: 0%
% AB (2x LC1) (incorrect assembly) [20]: 0%
% AB (2x LC2) (incorrect assembly) [21]: 2.5%
% AB (2x LC2) (incorrect assembly) [22]: 0%

B6: pertuzumab HC_20.8.34_A + pertuzumab LC (IgG4 HC backbone) (protein)
chain 1: B4 chain 1 with Y348S, D359K, T365M, K369Y, M398D, A406Y, R408V
chain 2: B3 chain 2
% AB (LC1/LC2) (correct IgG BsAb assembly) [23]: 94.8%
% AB (LC1/LC2) (correct IgG BsAb assembly) [24]: 94.1%
% AA Homodimer (incorrect assembly) [12, 30]: 5.2%
% AA Homodimer (incorrect assembly) [12, 31]: 2.3%
% AB (2x LC1) (incorrect assembly) [25]: 0%
% AB (2x LC1) (incorrect assembly) [26]: 0%
% AB (2x LC2) (incorrect assembly) [27]: 0%
% AB (2x LC2) (incorrect assembly) [28]: 0%
